Data published in the Human Domainome abundance scans (Beltran et al. 2025).

B1: Gamma-crystallin C, residues 91 to 170; numbered along this chain, P07315 (parent)
chain: RLYEREDHKGLMMELSEDCPSIQDRFHLSEIRSLHVLEGCWVLYELPNYRGRQYLLRPQEYRRCQDWGAMDAKAGSLRRV

Variants of: B1
Test: abundance fitness (aPCA) (normalised: wild type 0, dead -1); higher = more abundant; growth selection in yeast, the domain comes from the species named
Conditions: Homo sapiens

Abundance fitness of substitutions, site by site:
F26: W -0.007, V -0.461, T -0.217, K -0.818, I -0.553, C -0.317, S -0.69, R -0.886, E -0.923, A -0.564, G -0.406, Q -0.787, L -0.343, M -0.049, Y -0.461
M12: I -0.242, S -0.172, A -0.127, F -0.342, P -0.038, H -0.483, N -0.11, Y -0.063, G -0.286, C -0.288, D -0.863, V -0.096, K -0.464, Q -0.636, W -0.17, L -0.238, T -0.464, R -0.32
D24: C -0.274, K -0.256, S -0.067, Y -0.35, W -0.516, V -0.396, L -0.31, T -0.202, H -0.087, P -0.951, E 0.045, M -0.194, Q -0.213, G -0.167, A -0.008, N -0.183
C19: Y -0.712, V -0.43, E -0.369, P -0.902, A -0.836, S -0.92, M -0.761, T -0.535, L -0.659, F -0.969, W -0.807, K -0.623, R -0.886
S29: D -0.073, E -0.112, H -0.064, C -0.237, A -0.161, K -0.013, I -0.408, G -0.118, F -0.318
D7: P -0.846, V -0.936, Y -0.098, Q -0.273, M -0.241, S -0.277, T -0.995, R -0.505
K9: V -0.402, G -0.171, A -0.129, H -0.174, Y -0.467, P -0.728, E 0.017, S -0.241, M 0.212, C -0.103, T -0.156, Q 0.117, D -0.254, W -0.909, R -0.132, N -0.085, I -0.68, F -0.559
Q23: L -0.076, D -0.276, K -0.043, M -0.033, G -0.124, P -0.127, F -0.093, S -0.145, H -0.122, V -0.053, A -0.044, W 0.003, I 0.007, E 0, R -0.128, C -0.187, N -0.016, Y -0.17
I22: W -0.801, L -0.084, V -0.149, C -0.61, S -0.975, R -0.771, D -0.89, F -0.47, T -0.649, P -0.978, G -0.921, Y -0.6, M -0.562, A -0.784
L28: W 0.134, S -0.251, F -0.335, Q -0.337, V -0.035, P -0.864, H -0.448, R -0.05, E -0.451, T -0.601, G -0.364, M -0.038, Y -0.252, I 0.093, A -0.129, N -0.697, K -0.022
E17: F -0.516, N -0.477, C -0.168, S -0.155, V -0.253, G -0.132, R -0.422, P -0.91, K -0.416, H -0.564, Y -0.526, D -0.035, W -0.187, Q -0.089, T -0.231, A -0.18, I -0.533, L -0.544
S16: M -0.365, Q -0.132, T -0.129, A -0.043, N -0.025, L -0.276, Y -0.094, D -0.029, K -0.135, G -0.082, R -0.082, E 0.118, I -0.102, C -0.096, P -0.859, F -0.123
M13: V -0.002, D -0.706, S -0.441, P -1, Q -0.22, Y -0.112, L -0.078, H -0.283, R -0.261, F -0.253, N -0.24, E -0.327, A -0.085, G -0.07, C -0.118, I -0.148, W -0.018
G10: D -0.731, T -1.01, Q -0.775, A -0.976, P -0.951, H -0.818, V -0.821, C -0.905, S -0.923, Y -0.623, F -0.717, N -0.655, L -1.06, R -0.931
S21: C -0.089, T -0.456, P -0.602, N 0.053, K -0.472, G -0.613, H -0.184, V -0.56, M -0.914, E -0.554, L -0.761, R -0.454, I -0.842, A -0.467, Y -0.762, W -0.904, D -0.07
H27: F -0.414, I -0.739, S -0.079, V -0.602, Q -0.034, M -0.075, R -0.037, A -0.069, K -0.137, C -0.115, L -0.18, N 0.075, E -0.119, T -0.345, W -0.441, G 0.047
R25: T -0.148, L -0.184, G -0.602, V -0.025, D -0.396, A -0.086, S -0.078, P -0.736, I -0.598, K -0.07, Q -0.179, Y -0.463, W -0.134, C -0.339
L15: F -0.134, V 0.037, N -0.6, G -1.03, D -0.736, C -0.09, E -0.89, T -0.389, M -0.431, S -0.832, A -0.477
L11: T -0.049, Q -0.127, W -0.289, V -0.059, H -0.144, S -0.089, C -0.08, E 0, R -0.031, N 0.018, P -0.004, D -0.248, F -0.017, A -0.13, G -0.092, M -0.017, I -0.116
H8: Y 0.111
D18: C -0.676, A -0.462, I -0.758, K -0.934, Q -0.935, V -1.01, G -0.936, L -0.956, S -0.142, E -0.675, W -0.997, R -0.938, F -0.955, P -0.66, T -0.805, M -0.496, Y -0.748
P20: L -0.613, W -0.503, C -0.253, R -0.44, Y -0.996, V -0.345, A -0.025, H 0.061, Q -0.442, E -0.11, T -0.43, G -0.394, N -0.152, S -0.292, M -0.684, D -0.24, I -0.506
E14: V -0.227, Q -0.227, R -0.397, G -0.524, Y -0.04, I -0.265, K -0.095, C -0.565, P -0.269, D -0.485, A -0.15, T -0.169, S -0.25
